Data: PMC11352979, “The mycobacterium lipid transporter MmpL3 is dimeric in detergent solution, SMALPs and reconstituted nanodiscs†” (RSC Chemical Biology, 2024)

What was measured:
[1] = target: T1, C-terminally truncated Mycobacterium smegmatis MmpL3 (ΔC Ms-MmpL3, aa 1–773) (M. smegmatis), A0QP27; experiment: native MS; LILBID-MS of the high sucrose percentage (HSP, 16-18% sucrose) fraction of POPC/MSP1E3D1 nanodiscs; 20 mM Tris HCl pH 8.0; negative mode; low and high laser energies; settings: remark: other sources report otherwise
T1 chain: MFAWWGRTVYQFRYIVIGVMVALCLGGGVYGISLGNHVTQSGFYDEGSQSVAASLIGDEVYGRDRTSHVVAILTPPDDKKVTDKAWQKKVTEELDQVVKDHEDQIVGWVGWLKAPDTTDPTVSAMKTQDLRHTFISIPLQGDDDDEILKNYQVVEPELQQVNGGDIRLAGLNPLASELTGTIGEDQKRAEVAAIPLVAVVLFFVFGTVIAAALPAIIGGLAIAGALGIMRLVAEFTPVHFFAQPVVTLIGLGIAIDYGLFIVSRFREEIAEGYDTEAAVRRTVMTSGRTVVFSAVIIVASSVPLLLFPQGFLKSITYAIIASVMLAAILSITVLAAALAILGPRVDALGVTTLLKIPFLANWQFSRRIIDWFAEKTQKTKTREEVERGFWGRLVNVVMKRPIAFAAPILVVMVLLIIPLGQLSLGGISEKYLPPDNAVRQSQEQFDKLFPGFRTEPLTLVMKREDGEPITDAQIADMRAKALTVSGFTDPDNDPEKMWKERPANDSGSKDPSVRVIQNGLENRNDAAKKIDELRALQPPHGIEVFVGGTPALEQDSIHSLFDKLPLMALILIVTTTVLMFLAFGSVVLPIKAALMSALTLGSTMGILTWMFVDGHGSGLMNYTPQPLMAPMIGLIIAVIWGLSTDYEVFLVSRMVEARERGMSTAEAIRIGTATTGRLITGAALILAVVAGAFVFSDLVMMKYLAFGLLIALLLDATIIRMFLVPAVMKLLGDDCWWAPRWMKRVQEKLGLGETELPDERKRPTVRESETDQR

[2] = target: T1, C-terminally truncated Mycobacterium …; experiment: AUC; sedimentation velocity of the SEC peaks of protein in SMALPs; 0.1-0.5 mg/mL, 20 mM Tris HCl, 150 mM NaCl, pH 8.0, 20 °C; c(s) distribution; the mass includes lipid and polymer; settings: remark: other sources report otherwise

B1: C-terminally truncated Mycobacterium smegmatis MmpL3 (ΔC Ms-MmpL3, aa 1–773), A0QP27 1-773 (domain or fragment)
chain: T1 chain
What does the source list for B1?
stoichiometry N [1]: 2; stoichiometry N [2]: 2
